Key:
[1] = molecular target: T1, HSP70 (human HSP70; the antigen of the binning, humanization and variant binding assays) (human, UniProt P0DMV8 1-641, limits assumed); test: BLI, anti-human Fc capture, antigen dilution series, 1:1 fit
T1 construct: also called hu HSP70
Procedure: (§1) Further kinetics assays were conducted for select antibody variants. Assays were performed as follows. Antibody variants were immobilized using anti-human Fc onto the surface of a series of biosensors. Antigen was passed over the surface to generate a binding response. Binding data for the antibody: antigen interactions were collected at 25° C. on the biosensors. A dilution series of the antigen was used in the association step, in order to fit results globally and get the best values for ka, kd, and KD. The response data for the binding of antigen to the surface immobilized antibody were fitted to a 1:1 binding model.

[2] = molecular target: T1, HSP70 (human HSP70; the antigen of the …); test: BLI, anti-human Fc capture, steady state
Procedure: as §1

[3] = molecular target: T1, HSP70 (human HSP70; the antigen of the …); test: BLI, anti-human Fc capture, antigen 100 nM
Procedure: Binding assays were performed as follows. Antibody variants were immobilized using anti-human Fc onto the surface of a series of biosensors at […]. Antigen, at 100 nM, was passed over the surface to generate a binding response. Binding data for the antibody:antigen interactions were collected at 25° C. on the biosensors. In Table 14, X=610 represents captured antigen value (nM) at the beginning of the dissociation phase (measured at 610 seconds after the biosensor was initially contacted with antigen) and X=1495 represents captured antigen value (nM) at the end of the dissociation phase (measured at 1495 seconds after the biosensor was initially contacted with antigen). In Table 14, antibodies with an X=610 value greater than 0.2 and a % dissociation less than 10% are shown in bold.

[4] = molecular target: T1, HSP70 (human HSP70; the antigen of the …); test: BLI, antibody on sensor
Procedure: Humanized variants were characterized for binding using biolayer interferometry (BLI). Chimeric antibodies including the murine 77A antigen binding region and human Fe regions were also tested. Antibodies and reagents were diluted out onto microwell plates and loaded into the instrument. Diluted antibodies were first immobilized onto dip-and-read sensors, and then measurements for baselines were acquired. Subsequently, the sensors were dipped into wells containing the antigen in solution, or buffer alone. The change in number of molecules bound to the sensor was quantified by measurement of the shift in the interference pattern of light during each step of the protocol. Mathematical modeling was performed based on those values and the concentrations of reagents used in the assay and used to calculate kinetics values.

T1 sequence (P0DMV8 whole entry, change not shown): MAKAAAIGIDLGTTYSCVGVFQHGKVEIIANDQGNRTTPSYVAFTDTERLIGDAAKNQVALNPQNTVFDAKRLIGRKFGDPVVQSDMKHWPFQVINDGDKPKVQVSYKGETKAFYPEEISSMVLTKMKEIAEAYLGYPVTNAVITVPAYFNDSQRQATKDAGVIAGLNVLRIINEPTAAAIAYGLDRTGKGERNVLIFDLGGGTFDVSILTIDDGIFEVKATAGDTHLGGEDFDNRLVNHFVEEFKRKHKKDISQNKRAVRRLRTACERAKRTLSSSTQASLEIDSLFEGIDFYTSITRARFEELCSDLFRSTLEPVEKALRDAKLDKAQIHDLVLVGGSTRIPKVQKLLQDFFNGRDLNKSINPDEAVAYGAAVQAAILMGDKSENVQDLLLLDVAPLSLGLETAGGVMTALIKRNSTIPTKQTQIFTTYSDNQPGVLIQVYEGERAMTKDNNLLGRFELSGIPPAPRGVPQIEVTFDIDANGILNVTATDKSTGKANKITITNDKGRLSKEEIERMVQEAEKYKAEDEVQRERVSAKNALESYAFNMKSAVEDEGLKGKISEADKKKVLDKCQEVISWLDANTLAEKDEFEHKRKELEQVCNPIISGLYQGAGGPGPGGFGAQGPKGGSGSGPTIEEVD

Binder | Kd [1] | koff [1] | kon [1] | KD Steady State [2] | % Diss [3] | Kd [4] | koff [4] | kon [4]
h77A-1.1 (antibody, V domains shown, captured by anti-human Fc) VH: QIQLVQSGAEVKKPGASVKVSCKASGYTFTKYGMNWVRQAPGQGLEWMGWINTYTGEPTYADDFKGRFTFTTDTSTSTAYMELRSLRSDDTAVYFCARYDHAMDYWGQGTLVTVSS VL: EIVLTQSPDSLAVSLGERATINCKSSQSLLNSGTRKNYLAWYQQKAGQSPKLLIYWTSTRESGVPDRFSGSGSGTDFTLTIDSLQAEDVAVYYCKQSYTLYTFGGGTKVEIK | 0.69 nM | 6.11e-05 s⁻¹ | 88500 M⁻¹ s⁻¹ | 0.032 nM | 3.88% | – | – | –
h77A-1.6 (antibody, V domains shown, captured by anti-human Fc) VH: QIQLVQSGAEVKKPGASVKVSCKASGYTFTNYGMNWVRQAPGQGLEWMGWINTYTGEPTYADDFKGRFTFTTDTSTRTAYMELRSLRSDDTAVYFCARYDHAMDYWGQGTLVTVSS VL: EIVLTQSPDSLAVSLGERATINCKSSQSLLNSGTRKNYLAWYQQKAGQSPKLLIYWTSTRESGVPDRFSGSGSGTDFTLTIDSLQAEDVAVYYCKQSYTLYTFGGGTKVEIK | 2.11 nM | 0.000114 s⁻¹ | 54200 M⁻¹ s⁻¹ | 1.8 nM | 6.58% | – | – | –
h77A-1.8 (antibody, V domains shown, captured by anti-human Fc) VH: QIQLVQSGAEVKKPGASVKVSCKASGYTFTNYGMNWVRQAPGQGLEWMGWINTYTGEPTYADDFKGRFTFTTDTSTSTAYMELRSLRSDDTAVYFCARYDHAMDYWGQGTLVTVSS VL: EIVLTQSPDSLAVSLGERATIKCKSSQSLLNSGTRKNYLAWYQQKAGQSPKLLIYWTSTRESGVPDRFSGSGSGTDFTLTIDSLQAEDVAVYYCKQSYTLYTFGGGTKVEIK | 1.35 nM | 7.42e-05 s⁻¹ | 54800 M⁻¹ s⁻¹ | 0.31 nM | 8.62% | – | – | –
h77A-1.10 (antibody, V domains shown, captured by anti-human Fc) VH: QIQLVQSGDEVKKPGASVKVSCKASGYTFTNYGMNWVRQAPGQGLEWMGWINTYTGEPTYADDFKGRFTFTTDTSTSTAYMELRSLRSDDTAVYFCARYDHAMDYWGQGTLVTVSS VL: EIVLTQSPDSLAVSLGERATINCKSSQSLLNSGTRKNYLAWYQQKAGQSPKLLIYWTSTRESGVPDRFSGSGSGTDFTLTIDSLQAEDVAVYYCKQSYTLYTFGGGTKVEIK | 2.48 nM | 0.000145 s⁻¹ | 58400 M⁻¹ s⁻¹ | 2.6 nM | 8.76% | – | – | –
h77A-1.12 (antibody, V domains shown, captured by anti-human Fc) VH: QIQLVQSGAEVKKPGASVKVSCKASGYTFTNYGMNWVRQAPGQGLEWMGWINTYTGEPTYADDFKGRFTFTTDTSTSTAYMELRSLRSDDTAVYFCARYDHAMDYWGQGTLVTVSS VL: EIVLTQSPDSLAVSLGERATINCKSSQSLFNSGTRKNYLAWYQQKAGQSPKLLIYWTSTRESGVPDRFSGSGSGTDFTLTIDSLQAEDVAVYYCKQSYTLYTFGGGTKVEIK | 1.43 nM | 7.37e-05 s⁻¹ | 51700 M⁻¹ s⁻¹ | 1.1 nM | 4.74% | – | – | –
h77A-1.14 (antibody, V domains shown, captured by anti-human Fc) VH: QIQLVQSGAEVKKPGASVKVSCKASGYTFTNYGMNWVRQAPGQGLEWMGWINTYTGEPTYTDDFKGRFTFTTDTSTSTAYMELRSLRSDDTAVYFCARYDHAMDYWGQGTLVTVSS VL: EIVLTQSPDSLAVSLGERATINCKSSQSLLNSGTRKNYLAWYQQKAGQSPKLLIYWTSTRESGVPDRFSGSGSGTDFTLTIDSLQAEDVAVYYCKQSYTLYTFGGGTKVEIK | 1.97 nM | 0.000124 s⁻¹ | 63100 M⁻¹ s⁻¹ | 0.77 nM | 7.88% | – | – | –
h77A-1.16 (antibody, V domains shown, captured by anti-human Fc) VH: QIQLVQSGAEVKKPGASVKVSCKASGYTFTKYGMNWVRQAPGQGLEWMGWINTYTGEPTYADDFKGRFTFTTDTSTSTAYMELRSLRSDDTAVYFCARYDHAMDYWGQGTLVTVSS VL: EIVLTQSPDSLAVSLGERATIKCKSSQSLLNSGTRKNYLAWYQQKAGQSPKLLIYWTSTRESGVPDRFSGSGSGTDFTLTIDSLQAEDVAVYYCKQSYTLYTFGGGTKVEIK | 1.27 nM | 6.84e-05 s⁻¹ | 54000 M⁻¹ s⁻¹ | 1.3 nM | 3.25% | – | – | –
h77A-1.17 (antibody, V domains shown, captured by anti-human Fc) VH: QIQLVQSGAEVKKPGASVKVSCKASGYTFTKYGMNWVRQAPGQGLEWMGWINTYTGEPTYADDFKGRFTFTTDTSTSTAYMELRSLRSDDTAVYFCARYDHSMDYWGQGTLVTVSS VL: EIVLTQSPDSLAVSLGERATINCKSSQSLLNSGTRKNYLAWYQQKAGQSPKLLIYWTSTRESGVPDRFSGSGSGTDFTLTIDSLQAEDVAVYYCKQSYTLYTFGGGTKVEIK | 1.51 nM | 9.24e-05 s⁻¹ | 61400 M⁻¹ s⁻¹ | 1.3 nM | 7.04% | – | – | –
h77A-1.18 (antibody, V domains shown, captured by anti-human Fc) VH: QIQLVQSGAEVKKPGASVKVSCKASGYTFTNYGMNWVRQAPGQGLEWMGWINTYTGEPTYADDFKGRFTFTTDTSTRTAYMELRSLRSDDTAVYFCARYDHAMDYWGQGTLVTVSS VL: EIVLTQSPDSLAVSLGERATINCKSSQSLLNSGTRKNYLAWYQQKAGQSPKLVIYWTSTRESGVPDRFSGSGSGTDFTLTIDSLQAEDVAVYYCKQSYTLYTFGGGTKVEIK | 1.44 nM | 9.1e-05 s⁻¹ | 63200 M⁻¹ s⁻¹ | 0.81 nM | 7.15% | – | – | –
h77A-1.19 (antibody, V domains shown, captured by anti-human Fc) VH: QIQLVQSGAEVKKPGASVKVSCKASGYTFTNYGMNWVRQAPGQGLEWMGWINTYTGEPTYVDDFKGRFTFTTDTSTSTAYMDLRSLRSDDTAVYFCARYDHAMDYWGQGTLVTVSS VL: EIVLTQSPDSLAVSLGERATINCKSSQSLLNSGTRKNYLAWYQQKAGQSPKLLIYWTSTRESGVPDRFSGSGSGTDFTLTIDSLQAEDVAVYYCKQSYTLYTFGGGTKVEIK | 1.26 nM | 0.000111 s⁻¹ | 88500 M⁻¹ s⁻¹ | 1.2 nM | 8.73% | – | – | –
h77A-1.22 (antibody, V domains shown, captured by anti-human Fc) VH: QIQLVQSGAEVKKPGASVKVSCKASGYTFTNYGMNWVRQAPGQGLEWMGWINTYTGEPTYSDDFKGRFTFTTDTSTSTAYMELRSLRSDDTAVYFCARYDHAMDYWGQGTLVTVSS VL: EIVLTQSPDSLAVSLGERATINCKSSQSLFNSGTRKNYLAWYQQKAGQSPKLLIYWTSTRESGVPDRFSGSGSGTDFTLTIDSLQAEDVAVYYCKQSYTLYTFGGGTKVEIK | 1.14 nM | 7.64e-05 s⁻¹ | 66900 M⁻¹ s⁻¹ | 0.81 nM | 6.5% | – | – | –
h77A-1.27 (antibody, V domains shown, captured by anti-human Fc) VH: QIQLVQSGAEVKKPGASVKVSCKASGYTFTNYGMNWVRQAPGQGLEWMGWINTYTGEPTYTDDFKGRFTFTTDTSTSTAYMELRSLRSDDTAVYFCARYDHAMDYWGQGTLVTVSS VL: EIVLTQSPDSLTVSLGERATINCKSSQSLLNSGTRKNYLAWYQQKAGQSPKLLIYWTSTRESGVPDRFSGSGSGTDFTLTIDSLQAEDVAVYYCKQSYTLYTFGGGTKVEIK | 1.41 nM | 0.000108 s⁻¹ | 76400 M⁻¹ s⁻¹ | 0.89 nM | 6.74% | – | – | –
h77A-1.30 (antibody, V domains shown, captured by anti-human Fc) VH: QIQLVQSGAEVKKPGASVKVSCKASGYTFTNYGMNWVRQAPGQGLEWMGWINTYTGEPTYADDFKGRFTFTTDTSTSTAYMEVRSLRSDDTAVYFCARYDHAMDYWGQGTLVTVSS VL: EIVLTQSPDSLAVSLGERATINCKSSQSLLNSGTRKNYLAWYQQKAGQSPKLIIYWTSTRESGVPDRFSGSGSGTDFTLTIDSLQAEDVAVYYCKQSYTLYTFGGGTKVEIK | 1.93 nM | 0.000109 s⁻¹ | 56700 M⁻¹ s⁻¹ | 0.86 nM | 5.1% | – | – | –
chimeric 77A with a human IgG4 Fc domain (antibody, V domains shown, also called Chimera IgG4; IgG4 Chimera) VH: QIQLVQSGPELKKPGETVKISCKASGYTFTNYGMNWVKQAPGKGLKWMGWINTYTGEPTYADDFKGRFAFSLETSATTAYLQINNLKNEDTATYFCARYDHAMDYWGQGTSVTVSS VL: DIVMSQSPSSLAVSAGEKVTMSCKSSQSLLNSGTRKNYLAWYQQKPGQSPKLLIYWTSTRESGVPDRFTGSGSGTDFTLTINSVQAEDLAVYYCKQSYTLYTFGGGTKLEIK | – | – | – | – | – | 1.81 nM | 0.000129 s⁻¹ | 71300 M⁻¹ s⁻¹
chimeric 77A with a human IgG2 Fc domain (antibody, V domains shown, also called Chimera IgG2; IgG2 Chimera) VH: QIQLVQSGPELKKPGETVKISCKASGYTFTNYGMNWVKQAPGKGLKWMGWINTYTGEPTYADDFKGRFAFSLETSATTAYLQINNLKNEDTATYFCARYDHAMDYWGQGTSVTVSS VL: DIVMSQSPSSLAVSAGEKVTMSCKSSQSLLNSGTRKNYLAWYQQKPGQSPKLLIYWTSTRESGVPDRFTGSGSGTDFTLTINSVQAEDLAVYYCKQSYTLYTFGGGTKLEIK | – | – | – | – | – | 1.52 nM | 0.000112 s⁻¹ | 73700 M⁻¹ s⁻¹
